From US20180011102

B1: His-PGK1 (wild type), bacterially purified, not phosphorylated (protein)
chain: MSLSNKLTLDKLDVKGKRVVMRVDFNVPMKNNQITNNQRIKAAVPSIKFCLDNGAKSVVLMSHLGRPDGVPMPDKYSLEPVAVELKSLLGKDVLFLKDCVGPEVEKACANPAAGSVILLENLRFHVEEEGKGKDASGNKVKAEPAKIEAFRASLSKLGDVYVNDAFGTAHRAHSSMVGVNLPQKAGGFLMKKELNYFAKALESPERPFLAILGGAKVADKIQLINNMLDKVNEMIIGGGMAFTFLKVLNNMEIGTSLFDEEGAKIVKDLMSKAEKNGVKITLPVDFVTADKFDENAKTGQATVASGIPAGWMGLDCGPESSKKYAEAVTRAKQIVWNGPVGVFEWEAFARGTKALMDEVVKATSRGCITIIGGGDTATCCAKWNTEDKVSHVSTGGGASLELLEGKVLPGVDALSNI
B2: purified PGK1 T378P kinase-dead mutant (protein)
chain: MSLSNKLTLDKLDVKGKRVVMRVDFNVPMKNNQITNNQRIKAAVPSIKFCLDNGAKSVVLMSHLGRPDGVPMPDKYSLEPVAVELKSLLGKDVLFLKDCVGPEVEKACANPAAGSVILLENLRFHVEEEGKGKDASGNKVKAEPAKIEAFRASLSKLGDVYVNDAFGTAHRAHSSMVGVNLPQKAGGFLMKKELNYFAKALESPERPFLAILGGAKVADKIQLINNMLDKVNEMIIGGGMAFTFLKVLNNMEIGTSLFDEEGAKIVKDLMSKAEKNGVKITLPVDFVTADKFDENAKTGQATVASGIPAGWMGLDCGPESSKKYAEAVTRAKQIVWNGPVGVFEWEAFARGTKALMDEVVKATSRGCITIIGGGDTAPCCAKWNTEDKVSHVSTGGGASLELLEGKVLPGVDALSNI

Legend:
[1] = biological target: SUMO-PDHK1 (wild type), bacterially purified, Q15118
SUMO-PDHK1 (wild type), bacterially purified, Q15118, sequence (Q15118 whole entry, looked up): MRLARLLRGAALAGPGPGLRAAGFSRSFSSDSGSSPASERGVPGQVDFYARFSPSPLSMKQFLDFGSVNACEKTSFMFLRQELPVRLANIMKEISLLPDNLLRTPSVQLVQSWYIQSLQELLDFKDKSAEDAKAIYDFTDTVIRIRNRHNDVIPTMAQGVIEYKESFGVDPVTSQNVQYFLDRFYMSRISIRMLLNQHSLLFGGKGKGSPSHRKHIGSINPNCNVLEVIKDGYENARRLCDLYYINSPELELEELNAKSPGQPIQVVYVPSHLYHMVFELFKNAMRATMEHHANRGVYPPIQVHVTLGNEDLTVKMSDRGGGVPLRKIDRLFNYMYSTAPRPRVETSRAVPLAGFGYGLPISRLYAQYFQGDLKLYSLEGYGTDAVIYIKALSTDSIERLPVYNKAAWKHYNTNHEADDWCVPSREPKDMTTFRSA

[2] = biological target: purified PDHK1 T338A (pE-SUMO PDHK1 T338A), Q15118
purified PDHK1 T338A (pE-SUMO PDHK1 T338A), Q15118, sequence (Q15118 whole entry T338A): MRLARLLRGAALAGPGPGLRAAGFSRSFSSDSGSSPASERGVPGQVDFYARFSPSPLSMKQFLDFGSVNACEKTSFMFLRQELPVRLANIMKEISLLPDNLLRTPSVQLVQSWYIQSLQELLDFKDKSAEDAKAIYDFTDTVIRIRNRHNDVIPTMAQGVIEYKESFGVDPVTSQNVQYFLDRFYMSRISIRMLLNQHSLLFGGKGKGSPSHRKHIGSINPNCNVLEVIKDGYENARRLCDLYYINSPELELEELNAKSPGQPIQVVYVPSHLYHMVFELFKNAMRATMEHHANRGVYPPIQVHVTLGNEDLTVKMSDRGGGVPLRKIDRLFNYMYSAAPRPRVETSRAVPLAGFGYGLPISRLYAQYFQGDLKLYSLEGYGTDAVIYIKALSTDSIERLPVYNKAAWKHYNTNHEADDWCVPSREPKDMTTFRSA

[3] = biological target: purified Beclin-1 S30A mutant, Q14457
purified Beclin-1 S30A mutant, Q14457, sequence (Q14457 whole entry S30A): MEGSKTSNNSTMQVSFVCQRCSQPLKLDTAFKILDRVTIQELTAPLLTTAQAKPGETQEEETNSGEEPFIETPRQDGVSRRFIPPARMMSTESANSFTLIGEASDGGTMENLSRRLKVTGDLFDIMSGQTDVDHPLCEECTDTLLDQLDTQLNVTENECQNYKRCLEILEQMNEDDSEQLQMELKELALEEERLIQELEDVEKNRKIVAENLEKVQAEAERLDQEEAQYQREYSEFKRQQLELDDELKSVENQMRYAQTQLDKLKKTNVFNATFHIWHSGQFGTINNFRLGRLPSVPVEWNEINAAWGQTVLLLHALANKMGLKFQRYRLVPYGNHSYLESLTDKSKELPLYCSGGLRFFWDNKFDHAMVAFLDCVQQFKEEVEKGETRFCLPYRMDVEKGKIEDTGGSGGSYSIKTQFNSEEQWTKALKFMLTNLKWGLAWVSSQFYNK

[4] = biological target: purified wild-type Beclin-1, Q14457
purified wild-type Beclin-1, Q14457, sequence (Q14457 whole entry, looked up): as the sequence (Q14457 whole entry S30A) above, with A30S counted along it

[5] = biological target: purified PDHK1 S337A, Q15118
purified PDHK1 S337A, Q15118, sequence (Q15118 whole entry S337A): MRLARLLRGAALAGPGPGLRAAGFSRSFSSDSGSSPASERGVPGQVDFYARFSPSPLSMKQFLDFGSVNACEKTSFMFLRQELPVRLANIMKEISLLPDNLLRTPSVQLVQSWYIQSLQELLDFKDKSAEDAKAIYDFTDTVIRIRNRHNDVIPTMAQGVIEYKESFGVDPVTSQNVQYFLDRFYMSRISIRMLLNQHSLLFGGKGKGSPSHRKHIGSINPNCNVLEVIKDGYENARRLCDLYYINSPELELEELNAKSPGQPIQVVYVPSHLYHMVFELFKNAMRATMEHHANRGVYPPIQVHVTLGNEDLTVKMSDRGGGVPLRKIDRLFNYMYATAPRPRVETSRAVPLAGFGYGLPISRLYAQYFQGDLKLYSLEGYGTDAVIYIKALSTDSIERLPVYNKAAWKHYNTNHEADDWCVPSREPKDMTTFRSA

[6] = biological target: T1, purified CDC45 S386A, O75419
T1 chain: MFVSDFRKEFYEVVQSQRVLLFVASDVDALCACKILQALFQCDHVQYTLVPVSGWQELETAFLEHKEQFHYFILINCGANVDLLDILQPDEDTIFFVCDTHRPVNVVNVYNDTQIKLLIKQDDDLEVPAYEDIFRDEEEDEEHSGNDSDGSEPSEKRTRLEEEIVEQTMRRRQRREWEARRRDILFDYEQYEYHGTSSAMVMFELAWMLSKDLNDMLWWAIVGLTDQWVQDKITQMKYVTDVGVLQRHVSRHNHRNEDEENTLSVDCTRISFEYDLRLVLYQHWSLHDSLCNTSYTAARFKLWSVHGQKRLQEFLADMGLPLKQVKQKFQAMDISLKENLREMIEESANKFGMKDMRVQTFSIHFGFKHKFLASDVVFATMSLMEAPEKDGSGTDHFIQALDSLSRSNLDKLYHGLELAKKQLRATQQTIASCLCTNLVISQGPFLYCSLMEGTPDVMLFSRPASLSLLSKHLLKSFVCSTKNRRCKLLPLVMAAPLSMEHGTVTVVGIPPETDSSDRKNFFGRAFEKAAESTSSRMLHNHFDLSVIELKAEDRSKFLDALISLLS

[7] = biological target: T2, purified wild-type CDC45, O75419
T2 chain: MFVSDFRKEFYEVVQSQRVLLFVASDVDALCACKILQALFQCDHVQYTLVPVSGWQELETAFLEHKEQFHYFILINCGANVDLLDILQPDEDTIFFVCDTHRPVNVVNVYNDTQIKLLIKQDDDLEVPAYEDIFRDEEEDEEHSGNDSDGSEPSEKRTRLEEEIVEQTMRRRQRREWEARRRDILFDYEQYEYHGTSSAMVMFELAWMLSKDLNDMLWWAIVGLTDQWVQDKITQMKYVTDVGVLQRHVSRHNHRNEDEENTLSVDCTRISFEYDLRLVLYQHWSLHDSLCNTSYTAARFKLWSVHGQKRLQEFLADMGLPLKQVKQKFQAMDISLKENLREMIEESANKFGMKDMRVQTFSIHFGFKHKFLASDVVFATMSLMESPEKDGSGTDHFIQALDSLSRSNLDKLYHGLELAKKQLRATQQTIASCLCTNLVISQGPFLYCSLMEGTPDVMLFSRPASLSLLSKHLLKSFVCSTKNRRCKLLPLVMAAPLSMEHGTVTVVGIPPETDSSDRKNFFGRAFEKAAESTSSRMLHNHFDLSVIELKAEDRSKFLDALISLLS

| Protein | in vitro phosphorylation with [γ32P]-ATP, autoradiography and anti-phospho-PDHK1 T338 antibody [1] | in vitro phosphorylation with [γ32P]-ATP, autoradiography and anti-phospho-PDHK1 T338 antibody [2] | in vitro phosphorylation with [γ32P]-ATP, autoradiography and Western blot [3] | in vitro phosphorylation with [γ32P]-ATP, autoradiography and Western blot [4] | in vitro phosphorylation with [γ32P]ATP, autoradiography [5] | in vitro phosphorylation with [γ32P]-ATP, autoradiography and Western blot [6] | in vitro phosphorylation with [γ32P]-ATP, autoradiography and Western blot [7] |
| --- | --- | --- | --- | --- | --- | --- | --- |
| B1 | WT PGK1, but not a PGK1 T378P kinase-dead mutant, was able to phosphorylate WT PDHK1, but not PDHK1 T338A | WT PGK1, but not a PGK1 T378P kinase-dead mutant, was able to phosphorylate WT PDHK1, but not PDHK1 T338A | Beclin-1 S30A mutant was largely resistant to phosphorylation by PGK1 | Purified PGK1 phosphorylated purified wild-type Beclin-1 | mutation of the adjacent PDHK1 S337A had no effect on PGK1-mediated PDHK1 phosphorylation | Purified wild-type PGK1 but not PGK1 kinase-dead (KD) mutant phosphorylated purified wild-type CDC45, but not CDC45 S386A | Purified wild-type PGK1 but not PGK1 kinase-dead (KD) mutant phosphorylated purified wild-type CDC45, but not CDC45 S386A |
| B2 | WT PGK1, but not a PGK1 T378P kinase-dead mutant, was able to phosphorylate WT PDHK1, but not PDHK1 T338A | – | – | – | – | – | Purified wild-type PGK1 but not PGK1 kinase-dead (KD) mutant phosphorylated purified wild-type CDC45, but not CDC45 S386A |
